Experimental data taken from PMC7214467 (Nature Communications, 2020).
Blank lines part the entries; values can stand above or below the binder they belong to.

How the values were obtained:
[1] = target: HLA-A2/NY-ESO-1 peptide complex on tumor cells (Homo sapiens, HLA-A2 (A*02:01 assumed), …); assay: cell-based or functional assay
[2] = target: T1, CD3 on Jurkat cells (Homo sapiens, endogenous on Jurkat …, UniProt P07766); assay: flow cytometry on cells; Jurkat cells; titrated from 30 μg/mL in 3-fold dilutions, on ice; detected with PE goat anti-human lambda; conditions: one partner purified
T1 construct: CD3 of the T cell receptor complex on Jurkat cells; On cells CD3ε stands with the other CD3 chains and the TCR; also called CD3+ Jurkat cells; source: endogenous, on Jurkat cells (ATCC TIB-152)
T1 sequence (P07766 23-207): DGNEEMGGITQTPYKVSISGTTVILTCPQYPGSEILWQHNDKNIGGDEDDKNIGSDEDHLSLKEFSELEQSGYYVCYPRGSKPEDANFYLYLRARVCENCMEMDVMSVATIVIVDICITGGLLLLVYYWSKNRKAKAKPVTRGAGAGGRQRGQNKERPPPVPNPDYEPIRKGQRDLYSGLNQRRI

T cell redirected lysis of peptide-pulsed Saos-2 cells by primary T cells, 48 h, EC50 [1]: ~1 nM | binding result [2]: binds
B1: TCR/CD3 IgG BsAb with the 1G4_122 NY-ESO-1 TCR (stabilized Cα/Cβ subunit) and the chimeric SP-34 anti-CD3 arm (bispecific antibody, V domains shown)
VH: EVQLVESGGGLVQPKGSLKLSCAASGFTFNTYAMNWVRQAPGKGLEWVARIRSKYNNYATYYADSVKDRFTISRDDSQSLLYLQMNNLKTEDTAMYYCVRHGNFGNSYVSWFAYWGQGTLVTVSA
VL: QAVVTQESALTTSPGETVTLTCRSSTGAVTTSNYANWVQEKPDHLFTGLIGGTNKRAPGVPARFSGSLIGDKAALTITGAQTEDEAIYFCALWYSNLWVFGGGTKLTVL
notes: soluble 1G4_122 TCR α chain; Cα with the stabilizing mutations as in m1; soluble 1G4_122 TCR β chain; Cβ with the stabilizing mutations as in m2; detected with goat anti-human lambda; Two heavy chains joined by the 7.8.60 Fc heterodimer design; also called IgG-like BsAb; TCR/CD3 bifunctional; source: CHO K1SV KO, transient, secreted, purified (mAbSure resin, preparative size exclusion); copies: + …

T cell redirected lysis of peptide-pulsed 624.38 cells by primary T cells, 48 h, EC50 [1]: ~0.1 nM | T cell redirected lysis of peptide-pulsed Saos-2 cells by primary T cells, 48 h, EC50 [1]: ~0.03 nM | binding result [2]: binds
B2: TCR/CD3 Tandem BsAb with the stabilized 1G4_122 NY-ESO-1 TCR and the chimeric SP-34 anti-CD3 Fab (bispecific antibody, V domains shown)
VH: B1 VH
VL: B1 VL
notes: soluble 1G4_122 TCR α chain; Cα with the stabilizing mutations as in m1; soluble 1G4_122 TCR β chain; Cβ with the stabilizing mutations as in m2; detected with goat anti-human lambda; also called tandem Fab BsAb; tandem Fab; copies: + + +
